Key:
[1] = target: Human astrovirus 6 capsid spike (Spike 6) (human astrovirus serotype 6); assay: SEC
[2] = target: Human astrovirus 2 capsid spike (Spike 2) (human astrovirus serotype 2); assay: SEC

Human astrovirus 6 capsid spike (Spike 6) (domain or fragment)
stoichiometry N [1]: 2

Human astrovirus 2 capsid spike (Spike 2) (domain or fragment)
stoichiometry N [2]: 2

Reference: PMC8229645
